The assay concerns the target Hyper-IL-6 (designer cytokine consisting of covalently linked IL-6 and sIL-6R) (human, UniProt P08887 20-323; P05231 30-212). The assay can be described thus: SPR. (In general: Surface plasmon resonance follows binding to a sensor surface in real time, without labels.)

Chain of Hyper-IL-6 (designer cytokine consisting of covalently linked IL-6 and sIL-6R) (P08887 20-323, chain 1 of 2): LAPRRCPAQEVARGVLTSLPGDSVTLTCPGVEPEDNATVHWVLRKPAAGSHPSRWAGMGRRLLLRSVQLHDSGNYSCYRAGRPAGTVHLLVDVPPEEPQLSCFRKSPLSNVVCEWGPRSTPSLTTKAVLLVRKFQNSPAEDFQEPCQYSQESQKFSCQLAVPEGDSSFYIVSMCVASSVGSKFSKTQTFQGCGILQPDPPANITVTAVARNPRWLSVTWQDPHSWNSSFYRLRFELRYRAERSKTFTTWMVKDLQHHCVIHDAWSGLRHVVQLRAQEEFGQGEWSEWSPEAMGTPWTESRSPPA
Chain of Hyper-IL-6 (designer cytokine consisting of covalently linked IL-6 and sIL-6R) (P05231 30-212, chain 2 of 2): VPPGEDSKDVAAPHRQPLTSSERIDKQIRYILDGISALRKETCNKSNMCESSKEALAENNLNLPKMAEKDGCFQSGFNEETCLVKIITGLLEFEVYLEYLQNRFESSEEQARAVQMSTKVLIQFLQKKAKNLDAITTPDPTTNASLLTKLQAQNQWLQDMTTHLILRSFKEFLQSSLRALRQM

B1: wild type sgp130Fc (Fc fusion)
chain: ELLDPCGYISPESPVVQLHSNFTAVCVLKEKCMDYFHVNANYIVWKTNHFTIPKEQYTIINRTASSVTFTDIASLNIQLTCNILTFGQLEQNVYGITIISGLPPEKPKNLSCIVNEGKKMRCEWDGGRETHLETNFTLKSEWATHKFADCKAKRDTPTSCTVDYSTVYFVNIEVWVEAENALGKVTSDHINFDPVYKVKPNPPHNLSVINSEELSSILKLTWTNPSIKSVIILKYNIQYRTKDASTWSQIPPEDTASTRSSFTVQDLKPFTEYVFRIRCMKEDGKGYWSDWSEEASGITYEDRPSKAPSFWYKIDPSHTQGYRTVQLVWKTLPPFEANGKILDYEVTLTRWKSHLQNYTVNATKLTVNLTNDRYLATLTVRNLVGKSDAAVLTIPACDFQATHPVMDLKAFPKDNMLWVEWTTPRESVKKYILEWCVLSDKAPCITDWQQEDGTVHRTYLRGNLAESKCYLITVTPVYADGPGSPESIKAYLKQAPPSKGPTVRTKKVGKNEAVLEWDQLPVDVQNGFIRNYTIFYRTIIGNETAVNVDSSHTEYTLSSLTSDTLYMVRMAAYTDEGGKDGPEFTFTTPKFAQGEIE
The Kd is the free concentration of one partner at which half of the binding sites on the other are occupied at equilibrium, for simple one-to-one binding. A high value points to lower affinity. The molecule B1 gave a Kd of 0.499 nM.

The record behind these values is US8501696 (dated 2013).
